Measurements: patent publication US20100092994A1
Square brackets hold non-standard residues; d marks the D form. Ends that are not written are not given here. Hyp = O=C(O)[C@@H]1C[C@@H](O)CN1

How the values were obtained:
[1] = target: monoclonal antibody derived from clone 11G7; assay: competitive ELISA: free peptide prereacted with antibody supernatant, then added to the solid-phased oxidatively modified peptide
[2] = target: monoclonal antibody derived from clone 11A5 (Anti HP-FGA MAb Clone: 11A5; hybridoma FERM AP-21698); assay: as above
[3] = target: monoclonal antibody derived from clone 11G7; assay: competitive ELISA; reference is the unmodified peptide ESS-HP (SEQ ID NO: 2)
[4] = target: monoclonal antibody derived from clone 11A5 (Anti HP-FGA MAb Clone: 11A5; hybridoma FERM AP-21698); assay: as above

- IC50 [1]: 0.4 µg/mL
- IC50 [2]: 0.4 µg/mL
- fold of 50% inhibition against ESS-HP (SEQ ID NO: 2) [3]: > 25 times
- fold of 50% inhibition against ESS-HP (SEQ ID NO: 2) [4]: > 25 times
Binder: ESSSHH[Hyp]GIAEFPSR [synthetic peptide ESS (SEQ ID NO: 4), ESSSHHP(OH)GIAEFPSR, oxidatively modified FGA partial peptide]
